Measurements taken from patent US20220363757A1.

B1: Fab fragment of antibody 15011 (Fab, not shown: a dimerising Fc or GST)
heavy: EVQLLESGGGLVQPGGSLRLSCAASGFDFRSYAMMWVRQAPGKGLEWVGGINGEVGGSNTYYAPAVKGRATISRDNSKNTLYLQMNSLRAEDTAVYYCVKGAGACGICNDDIDAWGQGTLVTVSS
light: SYELTQDPAVSVALGQTVRITCSGAGSYAGSYYYGWHQQKPGQAPVTVIYDNDKRPSNIPDRFSGSSSGNTASLTITGAQAEDEADYYCGSTNDNDDGGLFGSGTKVTVLGQPKANPTVTLFPPSSEELQANKATLVCLISDFYPGAVTVAWKADGSPVKAGVETTKPSKQSNNKYAASSYLSLTPEQWKSHRSYSCQVTHEGSTVEKTVAPTECS
B2: Fab fragment of antibody 15532 (Fab, not shown: a dimerising Fc or GST)
heavy: QVQLQQWGAGLLRPSETLSLTCAVYGESFSGYYWNWIRQPPGKGLEWIGEINHSGSTNYNPSLKSRVTISVDTSKTQFSLKLSSVTAADTAVYYCARGWDLLDWNDYWNEYWGQGTLVTVSS
light: not shown
B3: Fab fragment of antibody 15431 (Fab, not shown: a dimerising Fc or GST)
heavy: QVQLQQSGPGLVKPSQTLSLTCAISGDSVSSNSAAWNWIRQSPSRGLEWLGRTYYRSKWYNDYAVSVKSRITINPDTSKNQFSLQLNSVTPEDTAVYYCARDDDWNDFDYWGQGTLVTVSS
light: not shown

Target: cynomolgus LAG-3 ECD human IgG1 Fc fusion (cynomolgus; human), P18627
Sequence (P18627 other isoform, or with tags, fused parts or gaps, form in doubt): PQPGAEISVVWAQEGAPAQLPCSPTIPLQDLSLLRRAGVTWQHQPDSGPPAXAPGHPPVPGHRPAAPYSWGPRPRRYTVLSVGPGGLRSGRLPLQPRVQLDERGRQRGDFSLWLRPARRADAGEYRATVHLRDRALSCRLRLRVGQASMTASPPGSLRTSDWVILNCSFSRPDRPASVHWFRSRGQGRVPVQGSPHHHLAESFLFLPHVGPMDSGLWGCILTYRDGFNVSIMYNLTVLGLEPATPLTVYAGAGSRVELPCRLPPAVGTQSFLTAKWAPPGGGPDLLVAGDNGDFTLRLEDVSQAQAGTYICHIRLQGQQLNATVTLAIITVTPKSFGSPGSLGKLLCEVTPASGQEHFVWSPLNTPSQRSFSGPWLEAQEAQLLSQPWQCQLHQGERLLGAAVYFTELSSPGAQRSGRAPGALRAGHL
Test: SPR, Fab over captured LAG-3 ECD-Fc

Binder	Kd	koff	kon
B1	35 nM	0.0025 s⁻¹	70000 M⁻¹ s⁻¹
B2	68 nM	0.0048 s⁻¹	71000 M⁻¹ s⁻¹
B3	120 nM	0.0068 s⁻¹	59000 M⁻¹ s⁻¹
